Test results taken from the domain aggregation screens of Martell et al. (2025).

Assay: soluble fraction after stress (log2 fold change); higher = more stays soluble; pooled small domains, quantitative proteomics
Conditions: stress: 50 degC
Outline: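 The measure of aggregation propensity here is the base-two logarithm of the fold change in the soluble amount of each protein after stress. A higher value means more of that protein stays in solution. Stress was applied at 50°C to pooled libraries of small protein domains, read out by high-throughput quantitative proteomics.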

| Sequence | soluble fraction (log2) |
| --- | --- |
| HMHPKDVPTRRELEVLQAVSEGLSTAEIGLRLDITENTVETFRRRLIQKFDAKNAIDLVVKAMAQGWIKV | -1.16 |
| HMHKLTSRQEEILQFIKDYLSEIGYPPTRSEIAQKMGFRSTNAAEEHLRALARKGAIEILPGPSRGLRLP | -0.455 |
| HMQVTDADFDQIRLAVLSQLKQNSLTVAELLKIIPFKEQKVMPVIRFLIDNRVLEHGTDMKLTVGNSVK | 0.0195 |
| HMQYRQRRGLERMELILDAATRVVAEVGYERTTTNAIATRAGISPGSLYQYFSSKEDIASALWERYAE | -0.23 |
| HMTDYVPTIGTKISKDFGSKGYFEGEVVSGPHNVTVEGDNMVVWKVQYEDGDREEMTASEIAHWKA | -0.105 |
| HMTVSADQTAADAVIKLINAIGTVSENSGSAISAARSGYDALTDTQKKLVTNYNKLTQAEQVFSSLPS | 0.203 |
| HMVISLREINLIGVYGRPNARRALVRLSNGRYVRVEVGSDLDGGKVTAIGDEALNFVKRGRTYAIQLPA | -1.55 |
| HMVRKIQAKLVLRLHAQGLSGRAIARSQGMSRRSVSDVLDAARAVGVGWDDVTGKTDGEVYALLFPGRG | -2.47 |
| HMGQYLDAATVAAVYHAYHARNWTQATLAKELKVARPTLSNVLNGREAPSVELAARIRAFLGSPEP | -1.66 |
| HMVLVSNYGEVVRKARERKGLDHGSLAMKISEKKSIITSVESGNMKPNEKLIKKLENFLNINLM | -1.33 |
| HMKAQVKSVLDEIPGVGPTRRKALMKHFTSIEEIKQAEFETLLEAEGMNRAAAQSVYDFFHN | -0.138 |
| HMLFYSDLVRLISFAEATLGKNEFETWYMSHHQGMKYTEIAIALGISVRTVEDRIARTKNHFRKI | -0.494 |
| HMNDEFYAVVRESYAGYALVKPLDEDVGYDILSVSVKNLKVGDIIRLKVKNIKEIYPPEAEVLEVEVLQ | 0.00135 |
| HMDFGPDSAAPLADGSAPEGFDVKGNADSMLYHEPDGRWYDATVAEVWFRTAEAAQAAGFTKAGS | -0.0829 |
| HMTMMTFGEKLQNARKGAGLSQEQLAEKLSVSRSAVAKWENDNGMPDIDNLKAIAQLLDVSIDYLLEN | 0.133 |
| HMRGESFSTLVSILQEMSARKAAQVLNGLSEGLAVEVLRALPSDVAGDILGRMDAAKAAALMEQLST | -0.17 |

| Sequence | soluble fraction (log2) |
| --- | --- |
| HMNLFNEIEKQYQALQDRSSASLVDLRHLLLDIEELVNSPDYQALAPDQRSTLQAARKELMRRIQKQEN | 0.213 |
| HMLSSNEIKEIFALFDKSNRGQVATSELGTLVRALNLNPTETEITDMQSKVDPKGQGSFTLDVLEKVVQD | 0.206 |
| HMKELFETLPDVLDAKLLASALSISKAGAYQLLNRPDFPTLQVGGWKLVTKQKLALWMEQHTN | -3.21 |
| HMDDLIIQIELKQEGLEITGLKVLLKEDSVIDEQVKQTIRRKIERFLVNLYGNPNVYVSKFSMGI | -0.325 |
| HMRTKLEEAVEWLQEQLNDGPVLSKELESEAKAADILPGTLRRAGEALGVVKQKQGGRGGWTWSLPR | 0.14 |
| HMIRALVPGQTLHGEIVGRNGGEVQVRLAEDMILNARVDQNIYLELGKDLTFEVKNNGATLTLSPL | -0.272 |
| HMVSPLEKSQSFGSFEISREFARTLGLTSARNWENWAASDSRPINIPYSPNVFYKNKGWIDWSDWLGTE | -0.286 |
| HMSNTGDIIRKLREESGVTAKELAHRIGLSASQMSRLESGKRRINSEVLTRIARALEVAPSQLID | -0.136 |
| HMSDRQLKRQANILYTTRKLASKVGYDGLTMRGLAEASEVSPKTLYNLFSSKDELLAAALEDLVGIV | 0.282 |
| HMKYFDRDLINYIQKTLAGKKIDFHEKIVPLIIELAGSDIRRVDEIIDMAEYSGKGMHVSEEMIRELAGDV | -0.815 |
| HMRGPVRLDLPVSGLSRSSGPALAKILQAVPGVHKAHVNVRSGKATLEYDPARAKVTDFVEVIRSAGFGT | -0.0414 |
| HMKQETLNEIGTKIRKLRESKNLSIQEFADKLEMEYNNVIRIEKGRTNFTIGTLVKIANSLEVNLKDI | -0.78 |
| HMDYYNILGVNKAATAQDIKRAYRKLAKEHHPDHGGDATRLQQVNEAYDTLKDPQRREQYDS | 0.24 |
| HMGTVRFYNKERGFGFVVSDDGESVFLPAKALPDGVSDLSPGTRVDYGAALGKKGSQ | 0.153 |
| HMADEDTILALAKEILASWPDKVEAYKNGNKGMLGLFMGELMKKSGGKANPKSASALIQKLLE | -0.0387 |
